Results on one molecule are retold here after patent US20230365658A1.

This experiment concerns the target SARS-CoV-2 spike (S) glycoprotein, artificially-constructed BA.2.75+R346T (SARS-CoV-2), P0DTC2. In words: cell-based or functional assay.

B1: mAb_v2130Vanderbilt_184_20220114_00112 (antibody, V domains shown)
VH: EVQLVESGGGLVKPGGSLRLSCAASGFTFRDVWMSWVRQAPGKGLEWVGRIKSKIDGGTTDYAAPVKGRFTISRDDSKNTLYLQMNSLKTEDTAVYYCTTAGSYYYDTVGPELPEGKFDYWGQGTLVTVSS
VL: not shown
For B1, the pseudoviral neutralization IC50 worked out at 0.674 µg/mL.
